Test results published in doi:10.1101/2020.01.06.896597 (bioRxiv, 2020).

B1: full-length (FL) human ACAT1 (enzyme, UniProt P35610 1-550, looked up)
chain: MVGEEKMSLRNRLSKSRENPEEDEDQRNPAKESLETPSNGRIDIKQLIAKKIKLTAEAEELKPFFMKEVGSHFDDFVTNLIEKSASLDNGGCALTTFSVLEGEKNNHRAKDLRAPPEQGKIFIARRSLLDELLEVDHIRTIYHMFIALLILFILSTLVVDYIDEGRLVLEFSLLSYAFGKFPTVVWTWWIMFLSTFSVPYFLFQHWATGYSKSSHPLIRSLFHGFLFMIFQIGVLGFGPTYVVLAYTLPPASRFIIIFEQIRFVMKAHSFVRENVPRVLNSAKEKSSTVPIPTVNQYLYFLFAPTLIYRDSYPRNPTVRWGYVAMKFAQVFGCFFYVYYIFERLCAPLFRNIKQEPFSARVLVLCVFNSILPGVLILFLTFFAFLHCWLNAFAEMLRFGDRMFYKDWWNSTSYSNYYRTWNVVVHDWLYYYAYKDFLWFFSKRFKSAAMLAVFAVSAVVHEYALAVCLSFFYPVLFVLFMFFGMAFNFIVNDSRKKPIWNVLMWTSLFLGNGVLLCFYSQEWYARQHCPLKNPTFLDYVRPRSWTCRYVF
B2: ACAT1-ΔNTD (domain or fragment, human, UniProt P35610 111-550, looked up)
chain: DLRAPPEQGKIFIARRSLLDELLEVDHIRTIYHMFIALLILFILSTLVVDYIDEGRLVLEFSLLSYAFGKFPTVVWTWWIMFLSTFSVPYFLFQHWATGYSKSSHPLIRSLFHGFLFMIFQIGVLGFGPTYVVLAYTLPPASRFIIIFEQIRFVMKAHSFVRENVPRVLNSAKEKSSTVPIPTVNQYLYFLFAPTLIYRDSYPRNPTVRWGYVAMKFAQVFGCFFYVYYIFERLCAPLFRNIKQEPFSARVLVLCVFNSILPGVLILFLTFFAFLHCWLNAFAEMLRFGDRMFYKDWWNSTSYSNYYRTWNVVVHDWLYYYAYKDFLWFFSKRFKSAAMLAVFAVSAVVHEYALAVCLSFFYPVLFVLFMFFGMAFNFIVNDSRKKPIWNVLMWTSLFLGNGVLLCFYSQEWYARQHCPLKNPTFLDYVRPRSWTCRYVF

Experiments:
[1] = biological target: the molecule itself; experiment: cryo-EM structure
[2] = biological target: the molecule itself; experiment: cryo-EM 2D class averages

| Protein | stoichiometry N [1] | stoichiometry N [2] |
| --- | --- | --- |
| B1 | 4 |  |
| B2 |  | 2 |
